# In patent US20240216553A1, “DEVELOPMENT OF CD163 TARGETING AGENT FOR IMAGING AND THERAPY” (Washington University, priority 2022, published 2024):
# Square brackets hold non-standard residues; d marks the D form. Ends that are not written are not given here. Peptide text beside a SMILES is read from it. * marks the point of attachment. X1 = O=C(O)CN1CCN(CC(=O)O)CCN(CC(=O)NCCN2C(=O)CC(*)C2=O)CCN(CC(=O)O)CC1
# B1: ICT-01 (non-radioactive) (peptide)
# peptide: WFWNHGWQWSSK
# modifications: not fully specified
# notes: also called non-radioactive ICT-01; CD163 targeting peptide ICT-01
# Tests used:
# [1] = biological target: T1, recombinant human CCR2 N-terminus protein (1-42 amino acids) (Homo sapiens, UniProt P41597); assay: Peptide ELISA of biotin-labelled peptides; format: binding; set-up: dose or concentration left out as unconfirmed; settings: n=3/group
# T1 construct: recombinant human CCR2 N-terminus protein (1-42 amino acids)
# T1 sequence (P41597 1-42): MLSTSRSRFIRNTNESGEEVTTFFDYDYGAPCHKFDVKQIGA
# Method: Phage display screening and identification of new CCR2 binding peptides. Using a recombinant human CCR2 N-terminus protein (1-42 amino acids) with a glutathione s-transferase (GST) tag, phage display screening was performed using Ph.D.™-12 peptide library to identify sequences binding to CCR2. After three rounds of phage selections, 50 phages were selected to amplify in E. coli, titer, and for DNA sequencing. Enzyme-linked immunosorbent assay (ELISA) was performed with pre-selected phages and identified five peptide sequences showing potential binding to CCR2. These peptides conjugated with biotin labels were customized for further peptide ELISA assays. […] Therefore, these peptides were selected as CCR2 binding sequences to synthesize peptide-chelator conjugates. To further confirm the specific binding of these peptides, peptide docking studies were performed based on a crystal structure of CCR2 (PDB Id 6GPS) and receptor structures resulting from molecular dynamics simulations of CCR2 and endogenous ligand CCL2 complex using the program AutoDock CrankPep.
# [2] = human, in vivo
# Method: Translation of [^64Cu]-DOTA-ECL1i for human Imaging. Animal toxicity studies with non-radioactive Cu-DOTA-ECL1i, dosimetry using [^64Cu]-DOTA-ECL1i in naïve mice were performed and submitted the exploratory investigative new drug (eIND) application to US Food Drug Administration (FDA). Following approvals from FDA, Washington University Radioactive Drug Research Committee (RDRC) and Institutional Review Board (IRB), the human dosimetry studied in six healthy volunteers (3 males, 3 females) who were injected with [^64Cu]-DOTA-ECL1i (5.2 mCi-10.4 mCi) and scanned at 15-30 min, 2-4 h, 20 h, and 44 h post injection was initiated. […] Approximately 80% of the activity was excreted in the urine within 2-4 hours after injection. […] The gender average Effective Dose was 0.064±0.012 rem/mCi (0.073 rem/mCi for females and 0.056 rem/mCi for the males). The critical organ for both genders was the urinary bladder wall, with the highest average estimated dose derived from the female model at 0.45 rad/mCi. Therefore, a dose of 8-10 mCi was injected to each patient in the HNSCC patient studies.
# [3] = biological target: CCR2 (human, on THP-1 cells and in human HNSCC tissue) (human) (UniProt P41597); assay: in vitro binding assay using THP-1 cells (competitive receptor binding with the non-radioactive counterpart, per paragraph 179)
# [4] = biological target: T2, CD163 (human, on CD163 overexpressing U87 cells and in human carotid endarterectomy tissue) (human, UniProt Q86VB7 42-1156); assay: competitive cell binding on U87 cells overexpressing CD163; cold ICT-01 displaces ^64Cu-ICT-01
# T2 construct: whole, on cells; also called CD163 receptor; human CD163
# Method: The in vitro cell binding assay of ⁶⁴Cu-ICT-01 was performed in U87 cells, which overexpresses CD163 receptor.
# [5] = biological target: T2, CD163 (human, on CD163 overexpressing …); assay: competitive cell binding on CD163 overexpressing U87 cells; 37 kBq ^64Cu-ICT-01 with non-radioactive ICT-01 at 10^-5-10^-10 M, gamma counting
# Method: An in vitro cell binding assay of ⁶⁴Cu-ICT-01 to CD163 was performed with a CD163 overexpressing U87 cell line. U87 cells seeded on a 12-well tissue culture plate were incubated at room temperature with 37 kBq of ⁶⁴Cu-ICT-01 in the presence of non-radioactive ICT-01 in increasing concentrations (10⁻⁵-10⁻¹⁰ M) in binding media (Dulbecco's Modified Eagle Medium (DMEM): 25 mM HEPES, 0.2% bovine serum albumin (BSA), and 0.3 mM 1,10-phenanthroline). The reaction media was aspirated after incubation. Cells were rinsed with 0.8 mL of ice-cold pH 7.4, 0.2% BSA/0.01 M phosphate buffered saline (PBS) twice and lysed in 0.8 mL of 1 M NaOH for 10 min. Each well was rinsed with 0.8 mL of PBS (1×, pH7.4)/0.2% BSA, which was collected into a plastic tube. The radioactivity in tubes was measured with a gamma counter (Wallac Wizard 1480, Perkin Elmer). The half-maximal inhibitory concentration (IC₅₀) for ⁶⁴Cu-ICT-01 was calculated using the GraphPad Prism (10.0.2).
# T2 sequence (Q86VB7 42-1156): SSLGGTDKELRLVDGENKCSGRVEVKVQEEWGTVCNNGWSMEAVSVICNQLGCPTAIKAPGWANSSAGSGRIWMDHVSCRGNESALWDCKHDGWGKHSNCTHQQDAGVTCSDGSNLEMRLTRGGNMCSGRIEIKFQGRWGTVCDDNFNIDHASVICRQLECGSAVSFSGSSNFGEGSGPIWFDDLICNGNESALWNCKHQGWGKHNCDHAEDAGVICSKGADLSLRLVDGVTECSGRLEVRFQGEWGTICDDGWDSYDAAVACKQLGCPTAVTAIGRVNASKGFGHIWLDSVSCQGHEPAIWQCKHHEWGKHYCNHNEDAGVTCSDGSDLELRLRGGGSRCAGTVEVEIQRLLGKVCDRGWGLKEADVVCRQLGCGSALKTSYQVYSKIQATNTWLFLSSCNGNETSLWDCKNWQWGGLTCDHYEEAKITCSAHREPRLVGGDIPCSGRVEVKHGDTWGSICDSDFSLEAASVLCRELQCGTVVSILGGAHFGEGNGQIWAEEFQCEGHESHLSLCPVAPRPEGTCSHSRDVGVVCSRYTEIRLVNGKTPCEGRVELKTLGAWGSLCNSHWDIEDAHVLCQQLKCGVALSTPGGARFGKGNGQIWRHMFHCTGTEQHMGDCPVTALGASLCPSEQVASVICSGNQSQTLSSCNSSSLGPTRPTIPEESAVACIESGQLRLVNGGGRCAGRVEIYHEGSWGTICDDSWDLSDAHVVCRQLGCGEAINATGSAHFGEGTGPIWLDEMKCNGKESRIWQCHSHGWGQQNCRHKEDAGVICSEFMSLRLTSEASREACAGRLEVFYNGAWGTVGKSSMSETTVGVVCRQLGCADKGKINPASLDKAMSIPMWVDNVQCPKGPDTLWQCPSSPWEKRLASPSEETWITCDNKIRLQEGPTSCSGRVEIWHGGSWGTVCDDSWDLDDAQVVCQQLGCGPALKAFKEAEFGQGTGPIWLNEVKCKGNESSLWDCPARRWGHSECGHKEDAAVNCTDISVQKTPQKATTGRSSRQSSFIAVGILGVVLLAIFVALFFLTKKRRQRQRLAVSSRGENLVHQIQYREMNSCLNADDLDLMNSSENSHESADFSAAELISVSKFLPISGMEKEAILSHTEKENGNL
molecule,measurement,setting,value
LIPAPGGTPRAG [P21],binding to CCR2 N-terminus protein compared to GST tag alone and BSA,[1],significantly higher binding
VDDHYGTIVRNG [P08],binding to CCR2 N-terminus protein compared to GST tag alone and BSA,[1],significantly higher binding
"CC(C)C[C@@H](N)C(=O)NCC(=O)N[C@@H](C(=O)N[C@H](Cc1ccccc1)C(=O)N[C@H](CC(C)C)C(=O)N[C@H](CCCCN)C(=O)N[C@H](CSC1CC(=O)N(CCNC(=O)CN2CCN(CC(=O)O)CCN(CC(=O)O)CCN(CC(=O)O)CC2)C1=O)C(=O)O)[C@H](C)O (stereo partly drawn) [[^64Cu]-DOTA-ECL1i, metal not drawn] (H-[dL]G[dT][dF][dL][dK][dC](X1)-OH; N-terminus and C-terminus assumed)","Effective Dose, females",[2],0.073 rem/mCi
same,"Effective Dose, males",[2],0.056 rem/mCi
same,gender average Effective Dose,[2],0.064±0.012 rem/mCi
same,"highest average estimated dose, urinary bladder wall (critical organ)",[2],0.45 rad/mCi
HWKWLKPWAVNT [P15],binding to CCR2 N-terminus protein compared to GST tag alone and BSA,[1],significantly higher binding
[^64Cu]-DOTA-ECL1i (peptide),IC50,[3],58.3 nM
B1,IC50,[4],26.8 nM
same,IC50,[5],14.4 nM
